Laboratory results taken from paper PMC5430804, “Structural and biochemical insights of CypA and AIF interaction” (Scientific Reports, 2017).
Each block holds one compound with its values, some of them ahead of it. *: point of attachment. Dabcyl = CN(C)c1ccc(N=Nc2ccc(C(=O)*)cc2)cc1; EDANS = O=S(=O)(O)c1cccc2c(NCCN*)cccc12

Experiments:
CypA [1] = target: T1, CypA (Homo sapiens, UniProt P62937); details: binding to CypA; cited from earlier work
T1 construct: His tag (6His); made in house
Excerpt: CSPs were quantified in terms of ΔδHNavs and classified as strong, medium and weak (see Methods section for details).

CypA/CsA complex = experiment: NMR competition with preformed CypA/CsA complex; assay type: binding; details: AIF(370-394) gradually added to preformed CypA/CsA complex
AIF(Δ1-121)/CypA complex = system: AIF(Δ1-121)/CypA complex; set-up: method as in PMID 24434516; details: cited from earlier work
CypA and CypA^R55A [2] = experiment: EnSpire label-free binding of AIF to immobilized CypA and CypA^R55A; details: CypA and CypAR55A immobilized, means of triplicates
Description: (§1) Direct binding assays were performed with the Corning Epic label-free technology with the EnSpire Multimode Plate Reader (PerkinElmer, Rodgau, Germany) as reported in literature.1 Briefly, […]
(§2) µg/mL streptavidin solution in 20 mM sodium acetate at pH 4.0, for 16 h at 4 °C. The microplate was subsequently washed three times with phosphate-buffered saline (PBS 1X, pH 7.4). After […]
(§3) assay buffer (PBS 1X, pH 7.4) for 2 hours followed by three washing steps in PBS 1X at pH 7.4.
(§4) After 2 h incubation, a baseline reading was recorded. Then 30 µL of peptide samples were dispensed in the plate. The final readings were taken over a period of 1 hour. Label-free responses were measured as shifts in reflected wavelength and were expressed in picometers (Fig. S4). The difference between the last baseline measurements and the maximum signal was used to determine the KD values (Table 1 in the main text). […]
biosensor by adding directly 100 µg/mL of protein in 20 mM sodium acetate pH 4.0, for 16 h at 4 °C (Fig. S5). […]
the procedure described above. Results were analyzed using the EnSpire label-free user interface software. […]
coated with CypA wild type with and without the CsA. Results were analyzed using the EnSpire label-free user interface software. […]
(B). Results were analyzed using the EnSpire label-free user interface software. […]

neuronal cells = system: neuronal cells; set-up: method as in PMID 24434516; details: cited from earlier work
CypA and CypA^R55A [3] = experiment: Competition of CypA/substrate complex formation (fluorescence quenching); assay type: binding
Excerpt: Results are means of triplicates.
(§5) (1 picture or pasted object on this page, not shown here)

[4] = system: CypA-CsA preformed complex; experiment: ITC competition: AIF(370-394) titrated onto CypA-CsA preformed complex; assay type: binding; details: AIF(370-394) 5 to 500 μM titrated onto CypA-CsA complex, 25 °C
Description: Figure 5 ITC binding assay. […] The bottom panels show the integrated heat of each injection after correction for the heat of dilution of ligands. Curves represent the best fit to a single-site binding model. (C, D) ITC competition assays.
ITC experiments were performed at 25 °C using a MicroCal ITC200 (GE Healthcare Bio-Sciences AB, Sweden). Protein and peptide samples were dialyzed in phosphate saline buffer (PBS 1X) containing 1 mM DTT, pH 7.4. […] Data were analyzed using the “Origin” software (MicroCal). The dissociation constant (KD), molar binding stoichiometry (n) and the binding enthalpy (ΔH), entropy (ΔS) and Gibbs free energy (ΔG) were determined by fitting the binding isotherm to a one-site model with MicroCal Origin software. All ITC experiments were performed in triplicate.

CypA [5] = target: T1, CypA; experiment: Fluorescence quenching binding of FRET substrate; details: excitation 340 nm, emission 510 nm
Excerpt: probe clusters) and CS003 (11 probe clusters), CS004 (7 probe clusters), CS005 (4 probe clusters), CS006 (4 probe clusters) and CS007 (4 probe clusters), CS008 (3 probe clusters), CS009 (2 probe clusters). The top scoring ligand-binding site identified by FTMap on CypA is the active site, while the second, CS001 (Figure S7) is constituted by loops connecting α1-β3 (G42-C52) and a portion of the loop connecting β4-β5 (G65-S99), close to the catalytic site of CypA within the same interaction surface identified by NMR studies and mapped by trypsin MS-based foot-printing and contains 19 probe clusters. […]
Fluorescence-based assays
Fluorescence quenching assays were performed using the FRET substrate Ac-EK(Dabcyl)PPFAE(EDANS)KA-NH2 (MW 1556.2 amu) reported in literature.6 At 0.23 ng/μL (0.15 μM) the substrate provides a significant fluorescence emission at 510 nm compared to the buffers used in the assay (PBS 1X) (Figure S8A). […] Kinetic constants were determined by fitting data of fluorescence maxima at 510 nm of EDANS upon protein additions. […]
(Fig. S8B, red and blue lines, respectively) on the CypA/substrate complex formation were determined using a 10-fold excess (1.5 μM) of compounds. […]
Figure S8. Binding assay based on fluorescence quenching. (A) Fluorescence emission spectrum of CypA substrate. Samples were excited at 340 nm, and the emission in the range of 450-600 nm was measured. […]

AIF(370-394) = target: T2, AIF(370-394) (Homo sapiens, UniProt O95831); experiment: EnSpire label-free direct binding to AIF(370-394); details: for KD: Corning Epic/EnSpire label-free, biotinylated AIF(370-394) immobilized on streptavidin-coated biosensor, PBS 1X pH 7.4, readings over 1 hour, means of triplicates; for binding / affinity for AIF(370-394), in words: EnSpire label-free
T2 construct: host or cells: chemical synthesis (synthetic peptide)
T2 sequence (O95831 370-394 limits assumed): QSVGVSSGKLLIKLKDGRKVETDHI
Description: Although peptide-peptide interaction insights might be prejudiced by the lack of appropriate 3D structures and require additional experimental assessment with full length proteins, they can mimic and anticipate in several cases real interactions. […] KD values determined by this approach are reported in Table 1 and the binding curves are shown in Supplementary Fig. S4.
as §1, §2, §3, §4
(§6) biosensor by adding directly 100 µg/mL of protein in 20 mM sodium acetate pH 4.0, for 16 h at 4 […]
(§7) by adding 200 µg/mL of protein in 20 mM sodium acetate pH 5.5, for 16 h at 4 °C. […]
(§8) the procedure described above. Results were analyzed using the EnSpire label-free user interface software. Plots were generated using GraphPad PrismR V-5.01 (GraphPad Software, La Jolla, CA). […]
Graphs were generated using GraphPad PrismR V-5.01 (GraphPad Software, La Jolla, CA). Results are means of triplicates.
as §5

AIF(Δ1-121) = AIF(Δ1-121) (Homo sapiens, UniProt O95831); experiment: EnSpire label-free direct binding to AIF(Δ1-121); details: for KD: Corning Epic/EnSpire label-free, AIF(Δ1-121) immobilized on biosensor (100 µg/mL, 20 mM sodium acetate pH 4.0), PBS 1X pH 7.4, readings over 1 hour, means of triplicates
Sequence of AIF(Δ1-121) (O95831 122-613, stated change not applied): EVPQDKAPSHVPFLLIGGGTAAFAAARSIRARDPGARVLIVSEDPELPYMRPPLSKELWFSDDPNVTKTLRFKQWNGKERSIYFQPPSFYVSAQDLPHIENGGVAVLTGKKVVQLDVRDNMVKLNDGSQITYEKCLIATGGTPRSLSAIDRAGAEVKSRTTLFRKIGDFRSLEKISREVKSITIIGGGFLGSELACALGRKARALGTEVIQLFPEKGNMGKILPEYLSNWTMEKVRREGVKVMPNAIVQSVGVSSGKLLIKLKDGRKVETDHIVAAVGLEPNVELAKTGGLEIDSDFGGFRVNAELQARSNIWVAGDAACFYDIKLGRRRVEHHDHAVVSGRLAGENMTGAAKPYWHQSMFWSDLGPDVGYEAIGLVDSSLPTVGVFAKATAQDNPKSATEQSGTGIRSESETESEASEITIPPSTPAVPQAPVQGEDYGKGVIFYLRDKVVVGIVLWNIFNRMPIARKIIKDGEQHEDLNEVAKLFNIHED
Description: as §1, §2, §3, §4, §6, §7, §8
Results were analyzed using the EnSpire label-free user interface software. Graphs were generated using GraphPad PrismR V-5.01 (GraphPad Software, La Jolla, CA). Results are means of triplicates.
as §5

T1 sequence (P62937 whole entry): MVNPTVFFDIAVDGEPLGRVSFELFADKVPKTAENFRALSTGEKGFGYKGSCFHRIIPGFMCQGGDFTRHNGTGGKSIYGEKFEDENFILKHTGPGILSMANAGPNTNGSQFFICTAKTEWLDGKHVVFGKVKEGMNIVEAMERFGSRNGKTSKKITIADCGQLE

Compound: CC[C@H](C)[C@H](NC(=O)[C@H](Cc1c[nH]cn1)NC(=O)[C@H](CC(=O)O)NC(=O)[C@@H](NC(=O)[C@H](CCC(=O)O)NC(=O)[C@@H](NC(=O)[C@H](CCCCN)NC(=O)[C@H](CCCNC(=N)N)NC(=O)CNC(=O)[C@H](CC(=O)O)NC(=O)[C@H](CCCCN)NC(=O)[C@H](CC(C)C)NC(=O)[C@H](CCCCN)NC(=O)[C@@H](NC(=O)[C@H](CC(C)C)NC(=O)[C@H](CC(C)C)NC(=O)[C@H](CCCCN)NC(=O)CNC(=O)[C@H](CO)NC(=O)[C@H](CO)NC(=O)[C@@H](NC(=O)CNC(=O)[C@@H](NC(=O)[C@H](CO)NC(=O)[C@H](CCC(N)=O)NC(C)=O)C(C)C)C(C)C)[C@@H](C)CC)C(C)C)[C@@H](C)O)C(N)=O [AIF(370-394)]
KD, in words (CypA [1]): low micromolar range
AIF(370-394) interaction with CypA after CsA binding (CypA/CsA complex): CsA binding to CypA did not fully abrogate the AIF(370-394) interaction with CypA
inhibition of AIF(Δ1-121)/CypA complex formation in vitro (AIF(Δ1-121)/CypA complex): able to inhibit the AIF(Δ1-121)/CypA complex formation in vitro
binding to CypA versus CypA^R55A (CypA and CypA^R55A [2]): bound CypA and CypA^R55A in a similar way
neuroprotection (neuronal cells; AIF(Δ1-121)/CypA-mediated glutamate-induced cell death): pronounced neuroprotection
nuclear translocation of AIF and CypA (neuronal cells): blocking the nuclear translocation of the two proteins
effect on CypA and CypA^R55A binding to substrate (CypA and CypA^R55A [3]; 10-fold excess (1.5 μM) of compound, fluorescence quenching, 510 nm, triplicates): unable to prevent the binding of both CypA and CypA^R55A to the substrate
effect on enzyme-substrate recognition (CypA and CypA^R55A [3]; larger excess of AIF(370-394), not shown): does impair the enzyme-substrate recognition
heat exchange [4]: no apparent heat exchange was observed

Compound: AIF(Δ1-121): apoptogenic (pro-apoptotic) form of AIF
binding to CypA versus CypA^R55A (CypA and CypA^R55A [2]): bound CypA and CypA^R55A in a similar way

Compound: Ac-EK(Dabcyl)PPFAE(EDANS)KA-NH2 (SMILES CC(=O)N[C@@H](CCC(=O)O)C(=O)N[C@@H](CCCCNC(=O)c1ccc(N=Nc2ccc(N(C)C)cc2)cc1)C(=O)N1CCC[C@H]1C(=O)N1CCC[C@H]1C(=O)N[C@@H](Cc1ccccc1)C(=O)N[C@@H](C)C(=O)N[C@@H](CCC(=O)NCCNc1cccc2c(S(=O)(=O)O)cccc12)C(=O)N[C@@H](CCCCN)C(=O)N[C@@H](C)C(N)=O) [CypA substrate, FRET substrate of CypA, MW 1556.2 amu]
Δfluorescence emission vs buffer (CypA [5]): 319 a. u.

Kd (AIF(370-394); full-length protein: CypA / CypAR55A immobilized (200 µg/mL, sodium acetate pH 5.5), AIF(370-394) added at several concentrations, means of triplicates (Fig. S7A)): 3000 ± 600 nM
Compound: CypA wild type: His-tagged CypA protein

KD (AIF(370-394)): No binding
Compound: CypA(55-69)R69: CypA(55-69) with R69 replaced by alanine (RIIPGFMCQGGDFTA)
binding / affinity for AIF(Δ1-121), in words (AIF(Δ1-121); EnSpire label-free): completely abrogated the binding to both the AIF forms
binding / affinity for AIF(370-394), in words (AIF(370-394)): completely abrogated the binding to both the AIF forms

KD (AIF(Δ1-121)): No binding
KD (AIF(370-394)): No binding
Compound: CypA(83-90): CypA-derived synthetic peptide, residues 83-90 (FEDENFIL)

KD (AIF(Δ1-121)): No binding
KD (AIF(370-394)): No binding
binding / affinity for AIF(370-394), in words (AIF(370-394)): did not interact with AIF(370-394)
Compound: CypA(136-150): CypA-derived synthetic peptide, residues 136-150 (MNIVEAMERFGSRNG)

KD (AIF(Δ1-121)): No binding
KD (AIF(370-394)): No binding
binding / affinity for AIF(370-394), in words (AIF(370-394)): did not interact with AIF(370-394)
Compound: CypA(154-165): CypA-derived synthetic peptide, residues 154-165 (KKITIADCGQLE)
